Results on one sequence are retold here after article PMC8938473.

The data set addresses T1, His6-CRP (cAMP receptor protein) (Shewanella putrefaciens CN32) (UniProt A0ABX8XCW1).
T1 sequence: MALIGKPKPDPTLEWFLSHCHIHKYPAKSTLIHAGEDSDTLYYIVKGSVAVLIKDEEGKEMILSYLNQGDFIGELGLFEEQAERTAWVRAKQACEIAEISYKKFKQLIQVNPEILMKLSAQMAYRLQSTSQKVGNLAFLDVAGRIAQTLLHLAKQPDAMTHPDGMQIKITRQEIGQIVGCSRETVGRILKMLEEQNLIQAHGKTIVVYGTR
Briefly: EMSA. The conditions noted are these: EMSA per DIG Gel Shift Kit 2nd Generation (Roche) protocol, 1 uM cAMP when necessary; buffer, salt, pH and temperature not given. On the technique in general: In EMSA bound probe runs differently from free probe, usually more slowly.

Turning to “ACCGATCCCATAATTAGCTCCCAACACCCAAGTGTTAATCCAAACAAAGGCCCACAAATCCAACAAATGTATGGAAGTGTGATACAAGTGGTGGAATTTTAGCTAATGAGCGAATGGAAGTCAATTTTTTGACGCGCCTCTATCGCTTGGTATTAAGGCTTTTTCTTGCGCATTACCTGTAAAATTGACGCTGGTTTTGTATAAAACTAGATGTTGTATGTTTATTTGTA (double strand) [bpfA-pro]”, the binding result is recorded as “binds”.
